Among the data in patent publication US20170166895 are Kd values, retold here.

The data set has as its target Complement component 3 (C3) (Homo sapiens) (UniProt P01024+P01024). Kind of data set: filter. The following applies: 3'-3' idT.
The mark [1] stands for this setting: all U in listing = NapdU, SB18T0.01, 37C.
[2] abbreviates: all U in listing = NapdU, SB18T0.01 (5 mM MgCl2), 37C.
[3] abbreviates: all U = NapdU, T = dT, SB18T0.01, 37C.

Complement component 3 (C3) (Homo sapiens), sequence (P01024 23-667, chain 1 of 2): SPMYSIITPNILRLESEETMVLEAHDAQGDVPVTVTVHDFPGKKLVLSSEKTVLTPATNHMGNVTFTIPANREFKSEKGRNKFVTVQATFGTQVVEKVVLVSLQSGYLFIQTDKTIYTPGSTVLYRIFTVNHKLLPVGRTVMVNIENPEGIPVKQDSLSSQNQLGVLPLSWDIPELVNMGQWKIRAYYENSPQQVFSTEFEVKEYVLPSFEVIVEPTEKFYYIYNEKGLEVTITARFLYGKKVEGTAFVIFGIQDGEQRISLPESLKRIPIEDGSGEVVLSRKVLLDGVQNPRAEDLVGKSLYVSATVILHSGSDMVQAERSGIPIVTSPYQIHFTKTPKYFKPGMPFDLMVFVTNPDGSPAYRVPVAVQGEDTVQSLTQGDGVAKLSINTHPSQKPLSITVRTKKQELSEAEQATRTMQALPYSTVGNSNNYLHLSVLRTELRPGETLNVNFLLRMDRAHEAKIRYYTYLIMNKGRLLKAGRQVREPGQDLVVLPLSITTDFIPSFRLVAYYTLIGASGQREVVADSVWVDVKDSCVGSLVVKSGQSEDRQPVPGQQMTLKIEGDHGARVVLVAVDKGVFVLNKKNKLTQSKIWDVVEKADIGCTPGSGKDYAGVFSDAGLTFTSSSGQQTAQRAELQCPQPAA
Complement component 3 (C3) (Homo sapiens), sequence (P01024 672-1663, chain 2 of 2): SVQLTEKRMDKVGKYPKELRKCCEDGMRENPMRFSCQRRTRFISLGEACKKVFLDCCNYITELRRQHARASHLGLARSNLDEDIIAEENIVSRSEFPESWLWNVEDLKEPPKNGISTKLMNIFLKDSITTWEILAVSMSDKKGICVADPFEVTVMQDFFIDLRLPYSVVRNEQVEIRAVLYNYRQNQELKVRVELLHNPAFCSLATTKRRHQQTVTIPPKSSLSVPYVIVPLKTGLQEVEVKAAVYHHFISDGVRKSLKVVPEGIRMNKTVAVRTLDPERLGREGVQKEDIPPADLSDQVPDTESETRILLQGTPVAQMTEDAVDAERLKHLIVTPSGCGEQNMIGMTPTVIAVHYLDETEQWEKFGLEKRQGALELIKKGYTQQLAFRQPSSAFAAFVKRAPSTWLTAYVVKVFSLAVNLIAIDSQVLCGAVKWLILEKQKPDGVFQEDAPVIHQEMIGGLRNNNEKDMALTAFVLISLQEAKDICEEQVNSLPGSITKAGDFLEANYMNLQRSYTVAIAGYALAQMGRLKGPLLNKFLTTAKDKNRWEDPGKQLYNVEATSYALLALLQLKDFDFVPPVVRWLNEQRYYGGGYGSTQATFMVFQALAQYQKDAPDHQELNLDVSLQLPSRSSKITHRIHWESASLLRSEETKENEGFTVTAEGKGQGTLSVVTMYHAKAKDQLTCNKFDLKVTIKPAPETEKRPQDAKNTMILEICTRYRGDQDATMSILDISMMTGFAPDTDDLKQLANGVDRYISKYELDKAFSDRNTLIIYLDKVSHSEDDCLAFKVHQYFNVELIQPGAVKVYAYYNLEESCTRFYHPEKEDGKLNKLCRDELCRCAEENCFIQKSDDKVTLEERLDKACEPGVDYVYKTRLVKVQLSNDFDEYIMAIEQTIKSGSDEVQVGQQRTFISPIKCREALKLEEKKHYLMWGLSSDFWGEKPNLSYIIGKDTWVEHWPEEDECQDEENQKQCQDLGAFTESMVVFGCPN

In the case of “CGGUGACUCAAUAGUCCGUACGUUCCCG [8491-94_72]”, the Kd (all U = NapdU, 2'-OMe at G14, SB18T0.01, 37C) was 6.17 nM.
Consider “CCGGUGACUCAAUAGUCCGUACGUUCCGG [8491-94_50]”, for which the Kd (all U = NapdU, C3-spacer replaces C28, SB18T0.01, 37C) is 0.448 nM.
As for “CGGUGACUCAAUAGUCCGUACGUUCCCG [8491-94_59]”, the Kd (P = NapdU (all U), 2'-OMe C1, SB18T0.01, 5 mM MgCl2, 37 C) stood at 0.0342 nM.
“CCGUGACUCAAUAGUCCGUACGUUCCCGG [8491-94_33]” came in with a Kd (all U = NapdU, C3-spacer replaces G4, SB18T0.01, 37C) of 0.245 nM.
With “CCGGUGACUCAAUAGUCCGUCGUUCCCGG [8491-94_45]”, the Kd (all U = NapdU, C3-spacer replaces A21, SB18T0.01, 37C) turned out to be 228 nM. In other words, the sub-micromolar range.
In turn, “ACTCCUACGGUUGGCUCCAUAGUCAGUACGUUUACGAUACCCCGAGGA [8491-282_3]” came in with a Kd under setting [1] of 0.27 nM.
In the case of “CGGUGACUCAAUAGUCCGUACGUUCCCG [8491-94_95]”, the Kd (all U = NapdU, 2'-OMe at 1,2,3,5,7,10,13,19,20,23-28, SB18T0.01, 37C) came out at 0.0357 nM.
Regarding “ACTCCCCGGUGACUCAAUAGUCCGUACGUUCCCGGUCCGAACGCGGAGGA [8491-94_3]”, under setting [2], the Kd turned out to be 0.0313 nM.
For the setting “P = NapdU (all U), 2'-OMe C7, SB18T0.01, 5 mM MgCl2, 37 C”, “CGGUGACUCAAUAGUCCGUACGUUCCCG [8491-94_65]” showed a Kd of 0.0316 nM.
Under “all U = NapdU, C3-spacer replaces A7, SB18T0.01, 37C”, “CCGGUGCUCAAUAGUCCGUACGUUCCCGG [8491-94_35]” registered a Kd of 5.67 nM. That is a single-digit nanomolar value.
In turn, CGGUGAUCAAUAGUCGUACGUUCCG [8491-94_54] yielded a Kd (all U = NapdU, C3-spacer replaces C7, C17, C25, SB18T0.01, 37C) of 0.0221 nM. This lies in the picomolar range.
For the sequence “ACTCCGAGCAUUGACUCAAUAGUCCGUACGUUUGGCCGGGCAGGGGAGGA [8491-3_3]”, the Kd under setting [2] came to 0.119 nM.
For the setting “all P = NapdU, T = dT, 2'-OMe at 2,3,5,7,9,10,13,19,20,22-28, C3-spacer replaces C17, SB18T0.01, 37C”, “TGGUGACUCAAUAGUCGUATGUUCCCA [8491-94_131]” yielded a Kd of 5.64 nM.
Sequence “CGGUGACUCAAUAGUCCGUACGUUCCCG [8491-94_76]” returned a Kd (all U = NapdU, 2'-OMe at G18, SB18T0.01, 37C) of 0.93 nM.
“CCGGUGACUCAAUAGUCGUACGUUCCCGG [8491-94_43]” yielded a Kd (all U = NapdU, C3-spacer replaces C18, SB18T0.01, 37C) of 0.0142 nM.
As for “CCGGUGACUCAUAGUCCGUACGUUCCCGG [8491-94_38]”, the Kd (all U = NapdU, C3-spacer replaces A11, SB18T0.01, 37C) was determined as 0.148 nM. This lies in the sub-nanomolar range.
Sequence “ACTCCGAGCAUUGACUCAAUAGUCCGUACGUUCCCGGUCUGAACGUGGAGGA [8491-406_3]” yielded a Kd under setting [1] of 2.47 nM.
For the setting “all U = NapdU, SB18T0.01, 37C”, “CCCCGGUGACUCAAUAGUCCGUACGUUCCCGGUCCGAACGCGGAGGA [8491-94_8]” registered a Kd of 0.0369 nM.
The sequence “ACTCCCCGGUGACTCAAUAGUCCGUACGUUCCCGGUCCGAACGCGGAGGA [8491-94_12]” came in with a Kd under setting [3] of 8.57 nM.
Consider “CGGUGACUCAAUAGUCCGUACGUUCCCG [8491-94_68]”, for which the Kd (P = NapdU (all U), 2'-OMe A10, SB18T0.01, 5 mM MgCl2, 37 C) was found to be 0.0424 nM.
On to “ACTCCGUCUGGCUAACUUAGUCCGUACGUUCGUGAGCGUGAUUAUGAGGA [8491-397_3]”, for which the Kd under setting [1] is 3.11 nM.
Under setting [3], “ACTCCCCGGUGACUCAAUAGUCCGUACGUTCCCGGUCCGAACGCGGAGGA [8491-94_17]” registered a Kd of 2.88 nM.
Sequence “CGGUGACUCAAUAGUCCGUACGUUCCCG [8491-94_86]” gave a Kd (P = NapdU (all U), 2'-OMe G28, SB18T0.01, 5 mM MgCl2, 37 C) of 0.0344 nM.
As for “CGGUGACUCAAUAGUCGUACGUUCCCG [8491-94_58]”, the Kd (all U = NapdU, C3-spacer replaces C17, SB18T0.01, 37C) is 0.787 nM.
Turning to CGGUGACUCAAUAGUCGUACGUUCCG [8491-94_99], the equilibrium dissociation constant (Kd) (all U = NapdU, 2'-OMe at 1,2,3,5,7,9,10,13,19,20,22,23,24,26,27,28, C3-spacer replaces C17, C25, SB18T0.01, 37C) was 0.167 nM.
As for “CCGGUGACUCAAUAGUCCGUACGUUCCCGGUCCGAACGCGGAGGA [8491-94_23]”, the Kd (all U = NapdU, SB18T0.01, 37C) worked out at 0.0621 nM.
Under setting [1], “ACTCCUCCCACACGACGAAUUUGACUCAAUAGUCCGUACGUUUUAGAGGA [8491-402_3]” gave a Kd of 0.0739 nM. This counts as picomolar.
With “CGGUGACUCAAUAGUCCGUACGUUCCCG [8491-94_63]”, the equilibrium dissociation constant (Kd) (P = NapdU (all U), 2'-OMe G5, SB18T0.01, 5 mM MgCl2, 37 C) worked out at 0.0268 nM.
With “CGGUGACUCAAUAGUCCGUACGUUCCCG [8491-94_101]”, the Kd (all U = NapdU, 2'-OMe at 1,2,3,5,7,9,10,13,20,22,25-28, SB18T0.01, 37C) turned out to be 0.219 nM.
For the sequence “CCGGUGACUCAAUAGUCCGUACGUUCCCG [8491-94_51]”, the equilibrium dissociation constant (Kd) (all U = NapdU, C3-spacer replaces G29, SB18T0.01, 37C) stood at 0.227 nM.
Consider “ACTCCCCGGUGACUCAAUAGUCCGUACGUUCCCGG [8491-94_19]”, for which, for the setting “all U = NapdU, SB18T0.01, 37C”, the equilibrium dissociation constant (Kd) was 0.0559 nM.
As for “CGGUGACUCAAUAGUCCGUACGUUCCCG [8491-94_66]”, where the note is “all U = NapdU, 2'-OMe at NapdU8, SB18T0.01, 37C”, the Kd stood at 0.149 nM.
Take “CGGUGACUCAAUAGUCCGUACGUUCCCG [8491-94_83]”: the Kd (P = NapdU (all U), 2'-OMe C25, SB18T0.01, 5 mM MgCl2, 37 C) came to 0.0488 nM.
Where the note is “all U = NapdU, SB18T0.01, 37C”, “ACTCCCCGGUGACUCAAUAGUCCGUACGUU [8491-94_21]” gave a Kd of 0.249 nM.
Consider “ACTCCCCGGUGACUCAAUAGUCCGUACGUUCCCGGUCCGAA [8491-94_6]”, for which the Kd (all U = NapdU, SB18T0.01, 37C) turned out to be 0.019 nM.
Consider “ACTCCACGGUGACUCCAUAGUCCGUACGUUCCCGCGGACGCACCGAGGA [8491-388_3]”, for which, under setting [1], the Kd was found to be 0.71 nM.
On to “CCGUGACUCAAUAGUCCGUACGUUCCCGG [8491-94_32]”, for which the dissociation constant (Kd) (all U = NapdU, C3-spacer replaces G3, SB18T0.01, 37C) amounted to 0.78 nM.
For “CGGUGACUCAAUAGUCCGUACGUUCCCG [8491-94_69]”, the Kd (P = NapdU (all U), 2'-OMe A11, SB18T0.01, 5 mM MgCl2, 37 C) stood at 0.272 nM. This counts as sub-nanomolar.
Take “CCGGUGACUAAUAGUCCGUACGUUCCCGG [8491-94_37]”: the Kd (all U = NapdU, C3-spacer replaces C10, SB18T0.01, 37C) was 0.0922 nM.
In the case of “CCGGUGACUCAAUAUCCGUACGUUCCCGG [8491-94_41]”, the Kd (all U = NapdU, C3-spacer replaces G15, SB18T0.01, 37C) was 0.598 nM.
“CCGGUGACUCAAUAGUCCGUACGUUCCCG [8491-94_52]” came in with a Kd (all U = NapdU, C3-spacer replaces G30, SB18T0.01, 37C) of 0.0504 nM.
Where the note is “all U = NapdU, SB18T0.01, 37C”, “ACTCCCCGGUGACUCAAUAGUCCGUACGUUCC [8491-94_20]” had a Kd of 1.14 nM.
CGGUGAUCAAUAGUCGUACGUUCCG [8491-94_102]: where the note is “all U = NapdU, 2'-OMe at 1,2,3,5,10,13,26,27,28, C3-spacer replaces C7, C17, C25, SB18T0.01, 37C”, the Kd stood at 0.0603 nM.
Sequence “ACTCCCCGGUGACUCAAUAGUCCGUACGUUUGGCCGGGCAGGGGAGGA [8491-395_3]” had a Kd under setting [1] of 3.52 nM.
Consider “ACTCCGAGCAUUGACUCAAUAGUCCGUACGUUUGGCCCGUUCACAAGGAGGA [8491-393_3]”, for which the Kd under setting [1] worked out at 0.25 nM.
“ACTCCGAGCAUUGACUCAAUAGUCCGUACGUUUUACGCGUGAGGA [8491-407_3]” yielded a Kd under setting [1] of 0.208 nM. This Kd and that of the sequence before are within 1.5-fold of each other.
In turn, “CGGUGACUCAAUAGUCCGUACGUUCCCG [8491-94_61]” yielded a Kd (P = NapdU (all U), 2'-OMe G3, SB18T0.01, 5 mM MgCl2, 37 C) of 0.0237 nM.
“CGGUGACUCAAUAGUCCGUACGUUCCCG [8491-94_71]” showed a Kd (P = NapdU (all U), 2'-OMe A13, SB18T0.01, 5 mM MgCl2, 37 C) of 0.0256 nM.
In turn, “CGGUGACUCAAUAGUCCGUACGUUCCG [8491-94_87]” gave a Kd (all U = NapdU, SB18T0.01, 37C) of 0.154 nM.
As for “CGGUGACUCAAUAGUCCGUACGUUCCCG [8491-94_89]”, the Kd (all U = NapdU, 2'-OMe at 1,3,5,7,10,13,28, SB18T0.01, 37C) came to 0.0173 nM.
In turn, “CCGGUGACUCAAUAGUCCGUACGUUCCGG [8491-94_48]” yielded a Kd (all U = NapdU, C3-spacer replaces C26, SB18T0.01, 37C) of 0.0302 nM. This lies in the picomolar range.
Turning to “CGGUGACUCAAUAGUCCGUACGUUCCCG [8491-94_73]”, the Kd (all U = NapdU, 2'-OMe at NapdU15, SB18T0.01, 37C) came to 1.32 nM.
In turn, “ACTCCCAAGCCUCUCGGUUUGGCUAAAUAGUCCGUACGUUUUCACGAGGA [8491-408_3]” gave a Kd under setting [1] of 0.161 nM.
Regarding “ACTCCUACAAAGCGAUUGGCUCGAUAGUCAGUACGUUUCUCGCUCGAGGA [8491-390_3]”, under setting [1], the Kd turned out to be 0.412 nM.
In turn, “ACTCCGAGCAUUGACUCAAUAGUCCGUACGUUUUUUUGGGCCGGGGGGGCAGGAGGA [8491-403_3]” had a Kd (all U in listing = NapdU, printed as 1.53-10, SB18T0.01, 37C) of 0.153 nM.
Turning to “ACTCCUGUUGACUCACAUAGUCCGUACGUUUACGGCAAUAGCACAGAGGA [8491-396_3]”, the Kd under setting [1] came out at 0.311 nM.
Regarding “ACTCCUCCCUUUGGCUCGAUAGUCGGUACGUUUUGGGGAGGCGUGGAGGA [8491-409_3]”, the Kd under setting [1] worked out at 0.316 nM. This Kd and that of the sequence before are within 1.5-fold of each other.
With “CGGUGACUCAAUAGUCCGUACGUUCCCG [8491-94_77]”, under “P = NapdU (all U), 2'-OMe P19, SB18T0.01, 5 mM MgCl2, 37 C”, the Kd turned out to be 0.0262 nM.
CGGUGACUCAAUAGUCGUACGUUCCG [8491-94_56] registered a Kd (all U = NapdU, C3-spacer replaces C17, C25, SB18T0.01, 37C) of 0.0464 nM.
Turning to “ACTCCCUAUGAGGGCUGAUUCAAUAGUCAGUACGUUCGCCCCAUCGAGGA [8491-399_3]”, the Kd under setting [1] came out at 8.61 nM.
As for “CGGUGACUCAAUAGUCCGUATGUUCCCG [8491-94_132]”, where the note is “all P = NapdU, T = dT, 2'-OMe at 1,2,3,5,7,9,10,13,19,20,22-28, SB18T0.01, 37C”, the equilibrium dissociation constant (Kd) worked out at 12.7 nM.

For orientation: Kd means the concentration at which binding is half-saturated.
